This passage reports Ki results from patent US20260015399A1 (Boehringer Ingelheim, published 2026).

*1 amine or outer side, *2 acyl side, *3 side chain or, on linkers, in order; H or OH if unused. Side-chain parts run from the residue outwards. The star is where a group is joined. C18 diacid = O=C(O)CCCCCCCCCCCCCCCCC(=O)*; γGlu = O=C(O)[C@H](CCC(=O)[*:2])N[*:1]; Isovaleryl = CC(C)CC(=O)*; Ahx = NCCCCCC(=O)O

The chains are these.
T1: human NPY2 receptor (human, UniProt P49146 1-381)
T1 construct: whole, on cells; also called hNPY2-R; hNPY2R
T1 sequence (looked up): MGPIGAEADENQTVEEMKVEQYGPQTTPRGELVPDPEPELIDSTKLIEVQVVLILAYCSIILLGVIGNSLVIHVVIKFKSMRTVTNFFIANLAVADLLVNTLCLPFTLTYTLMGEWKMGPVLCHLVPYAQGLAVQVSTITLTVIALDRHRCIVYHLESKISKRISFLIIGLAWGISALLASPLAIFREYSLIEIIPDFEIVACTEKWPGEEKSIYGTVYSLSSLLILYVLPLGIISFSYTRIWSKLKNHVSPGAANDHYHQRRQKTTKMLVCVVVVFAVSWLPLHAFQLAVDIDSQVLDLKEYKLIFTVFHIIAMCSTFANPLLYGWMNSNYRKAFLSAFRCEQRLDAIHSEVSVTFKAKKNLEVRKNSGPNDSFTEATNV

B1: Compound 58 (peptide)
peptide: Isovaleryl-APEK([Ahx-γGlu-C18 diacid])PEEDATPEEVQRYYVSLRHYYNWLTRQRY-NH2
SMILES: CC(C)CC(=O)N[C@@H](C)C(=O)N1CCC[C@H]1C(=O)N[C@@H](CCC(=O)O)C(=O)N[C@@H](CCCCNC(=O)CCCCCNC(=O)CC[C@H](NC(=O)CCCCCCCCCCCCCCCCC(=O)O)C(=O)O)C(=O)N1CCC[C@H]1C(=O)N[C@@H](CCC(=O)O)C(=O)N[C@@H](CCC(=O)O)C(=O)N[C@@H](CC(=O)O)C(=O)N[C@@H](C)C(=O)N[C@H](C(=O)N1CCC[C@H]1C(=O)N[C@@H](CCC(=O)O)C(=O)N[C@@H](CCC(=O)O)C(=O)N[C@H](C(=O)N[C@@H](CCC(N)=O)C(=O)N[C@@H](CCCNC(=N)N)C(=O)N[C@@H](Cc1ccc(O)cc1)C(=O)N[C@@H](Cc1ccc(O)cc1)C(=O)N[C@H](C(=O)N[C@@H](CO)C(=O)N[C@@H](CC(C)C)C(=O)N[C@@H](CCCNC(=N)N)C(=O)N[C@@H](Cc1c[nH]cn1)C(=O)N[C@@H](Cc1ccc(O)cc1)C(=O)N[C@@H](Cc1ccc(O)cc1)C(=O)N[C@@H](CC(N)=O)C(=O)N[C@@H](Cc1c[nH]c2ccccc12)C(=O)N[C@@H](CC(C)C)C(=O)N[C@H](C(=O)N[C@@H](CCCNC(=N)N)C(=O)N[C@@H](CCC(N)=O)C(=O)N[C@@H](CCCNC(=N)N)C(=O)N[C@@H](Cc1ccc(O)cc1)C(N)=O)[C@@H](C)O)C(C)C)C(C)C)[C@@H](C)O
B2: Compound 60 (peptide)
peptide: Isovaleryl-APEK([Ahx-γGlu-C18 diacid])PEEDASPEELQRYYVSLRHYYQWLTRQRY-NH2
SMILES: CC(C)CC(=O)N[C@@H](C)C(=O)N1CCC[C@H]1C(=O)N[C@@H](CCC(=O)O)C(=O)N[C@@H](CCCCNC(=O)CCCCCNC(=O)CC[C@H](NC(=O)CCCCCCCCCCCCCCCCC(=O)O)C(=O)O)C(=O)N1CCC[C@H]1C(=O)N[C@@H](CCC(=O)O)C(=O)N[C@@H](CCC(=O)O)C(=O)N[C@@H](CC(=O)O)C(=O)N[C@@H](C)C(=O)N[C@@H](CO)C(=O)N1CCC[C@H]1C(=O)N[C@@H](CCC(=O)O)C(=O)N[C@@H](CCC(=O)O)C(=O)N[C@@H](CC(C)C)C(=O)N[C@@H](CCC(N)=O)C(=O)N[C@@H](CCCNC(=N)N)C(=O)N[C@@H](Cc1ccc(O)cc1)C(=O)N[C@@H](Cc1ccc(O)cc1)C(=O)N[C@H](C(=O)N[C@@H](CO)C(=O)N[C@@H](CC(C)C)C(=O)N[C@@H](CCCNC(=N)N)C(=O)N[C@@H](Cc1c[nH]cn1)C(=O)N[C@@H](Cc1ccc(O)cc1)C(=O)N[C@@H](Cc1ccc(O)cc1)C(=O)N[C@@H](CCC(N)=O)C(=O)N[C@@H](Cc1c[nH]c2ccccc12)C(=O)N[C@@H](CC(C)C)C(=O)N[C@H](C(=O)N[C@@H](CCCNC(=N)N)C(=O)N[C@@H](CCC(N)=O)C(=O)N[C@@H](CCCNC(=N)N)C(=O)N[C@@H](Cc1ccc(O)cc1)C(N)=O)[C@@H](C)O)C(C)C
B3: Compound 62 (peptide)
peptide: Isovaleryl-APAK([Ahx-γGlu-C18 diacid])PPEDASPEELQRYYVELRHYYNWLTRQRY-NH2
SMILES: CC(C)CC(=O)N[C@@H](C)C(=O)N1CCC[C@H]1C(=O)N[C@@H](C)C(=O)N[C@@H](CCCCNC(=O)CCCCCNC(=O)CC[C@H](NC(=O)CCCCCCCCCCCCCCCCC(=O)O)C(=O)O)C(=O)N1CCC[C@H]1C(=O)N1CCC[C@H]1C(=O)N[C@@H](CCC(=O)O)C(=O)N[C@@H](CC(=O)O)C(=O)N[C@@H](C)C(=O)N[C@@H](CO)C(=O)N1CCC[C@H]1C(=O)N[C@@H](CCC(=O)O)C(=O)N[C@@H](CCC(=O)O)C(=O)N[C@@H](CC(C)C)C(=O)N[C@@H](CCC(N)=O)C(=O)N[C@@H](CCCNC(=N)N)C(=O)N[C@@H](Cc1ccc(O)cc1)C(=O)N[C@@H](Cc1ccc(O)cc1)C(=O)N[C@H](C(=O)N[C@@H](CCC(=O)O)C(=O)N[C@@H](CC(C)C)C(=O)N[C@@H](CCCNC(=N)N)C(=O)N[C@@H](Cc1c[nH]cn1)C(=O)N[C@@H](Cc1ccc(O)cc1)C(=O)N[C@@H](Cc1ccc(O)cc1)C(=O)N[C@@H](CC(N)=O)C(=O)N[C@@H](Cc1c[nH]c2ccccc12)C(=O)N[C@@H](CC(C)C)C(=O)N[C@H](C(=O)N[C@@H](CCCNC(=N)N)C(=O)N[C@@H](CCC(N)=O)C(=O)N[C@@H](CCCNC(=N)N)C(=O)N[C@@H](Cc1ccc(O)cc1)C(N)=O)[C@@H](C)O)C(C)C
B4: Compound 59 (peptide)
peptide: Isovaleryl-APAK([Ahx-γGlu-C18 diacid])PEEDASPEELQRYYVQLRHYYNWLTRQRY-NH2
SMILES: CC(C)CC(=O)N[C@@H](C)C(=O)N1CCC[C@H]1C(=O)N[C@@H](C)C(=O)N[C@@H](CCCCNC(=O)CCCCCNC(=O)CC[C@H](NC(=O)CCCCCCCCCCCCCCCCC(=O)O)C(=O)O)C(=O)N1CCC[C@H]1C(=O)N[C@@H](CCC(=O)O)C(=O)N[C@@H](CCC(=O)O)C(=O)N[C@@H](CC(=O)O)C(=O)N[C@@H](C)C(=O)N[C@@H](CO)C(=O)N1CCC[C@H]1C(=O)N[C@@H](CCC(=O)O)C(=O)N[C@@H](CCC(=O)O)C(=O)N[C@@H](CC(C)C)C(=O)N[C@@H](CCC(N)=O)C(=O)N[C@@H](CCCNC(=N)N)C(=O)N[C@@H](Cc1ccc(O)cc1)C(=O)N[C@@H](Cc1ccc(O)cc1)C(=O)N[C@H](C(=O)N[C@@H](CCC(N)=O)C(=O)N[C@@H](CC(C)C)C(=O)N[C@@H](CCCNC(=N)N)C(=O)N[C@@H](Cc1c[nH]cn1)C(=O)N[C@@H](Cc1ccc(O)cc1)C(=O)N[C@@H](Cc1ccc(O)cc1)C(=O)N[C@@H](CC(N)=O)C(=O)N[C@@H](Cc1c[nH]c2ccccc12)C(=O)N[C@@H](CC(C)C)C(=O)N[C@H](C(=O)N[C@@H](CCCNC(=N)N)C(=O)N[C@@H](CCC(N)=O)C(=O)N[C@@H](CCCNC(=N)N)C(=O)N[C@@H](Cc1ccc(O)cc1)C(N)=O)[C@@H](C)O)C(C)C
B5: Compound 61 (peptide)
peptide: Isovaleryl-APEK([Ahx-γGlu-C18 diacid])PPADASPEEIQRYYVSLRHYYNWLTRQRY-NH2
SMILES: CC[C@H](C)[C@H](NC(=O)[C@H](CCC(=O)O)NC(=O)[C@H](CCC(=O)O)NC(=O)[C@@H]1CCCN1C(=O)[C@H](CO)NC(=O)[C@H](C)NC(=O)[C@H](CC(=O)O)NC(=O)[C@H](C)NC(=O)[C@@H]1CCCN1C(=O)[C@@H]1CCCN1C(=O)[C@H](CCCCNC(=O)CCCCCNC(=O)CC[C@H](NC(=O)CCCCCCCCCCCCCCCCC(=O)O)C(=O)O)NC(=O)[C@H](CCC(=O)O)NC(=O)[C@@H]1CCCN1C(=O)[C@H](C)NC(=O)CC(C)C)C(=O)N[C@@H](CCC(N)=O)C(=O)N[C@@H](CCCNC(=N)N)C(=O)N[C@@H](Cc1ccc(O)cc1)C(=O)N[C@@H](Cc1ccc(O)cc1)C(=O)N[C@H](C(=O)N[C@@H](CO)C(=O)N[C@@H](CC(C)C)C(=O)N[C@@H](CCCNC(=N)N)C(=O)N[C@@H](Cc1c[nH]cn1)C(=O)N[C@@H](Cc1ccc(O)cc1)C(=O)N[C@@H](Cc1ccc(O)cc1)C(=O)N[C@@H](CC(N)=O)C(=O)N[C@@H](Cc1c[nH]c2ccccc12)C(=O)N[C@@H](CC(C)C)C(=O)N[C@H](C(=O)N[C@@H](CCCNC(=N)N)C(=O)N[C@@H](CCC(N)=O)C(=O)N[C@@H](CCCNC(=N)N)C(=O)N[C@@H](Cc1ccc(O)cc1)C(N)=O)[C@@H](C)O)C(C)C
B6: Compound 66 (peptide)
peptide: Isovaleryl-APEK([Ahx-γGlu-C18 diacid])PEEDATPEELQRYYISLRHYYNWLTRQRY-NH2
SMILES: CC[C@H](C)[C@H](NC(=O)[C@H](Cc1ccc(O)cc1)NC(=O)[C@H](Cc1ccc(O)cc1)NC(=O)[C@H](CCCNC(=N)N)NC(=O)[C@H](CCC(N)=O)NC(=O)[C@H](CC(C)C)NC(=O)[C@H](CCC(=O)O)NC(=O)[C@H](CCC(=O)O)NC(=O)[C@@H]1CCCN1C(=O)[C@@H](NC(=O)[C@H](C)NC(=O)[C@H](CC(=O)O)NC(=O)[C@H](CCC(=O)O)NC(=O)[C@H](CCC(=O)O)NC(=O)[C@@H]1CCCN1C(=O)[C@H](CCCCNC(=O)CCCCCNC(=O)CC[C@H](NC(=O)CCCCCCCCCCCCCCCCC(=O)O)C(=O)O)NC(=O)[C@H](CCC(=O)O)NC(=O)[C@@H]1CCCN1C(=O)[C@H](C)NC(=O)CC(C)C)[C@@H](C)O)C(=O)N[C@@H](CO)C(=O)N[C@@H](CC(C)C)C(=O)N[C@@H](CCCNC(=N)N)C(=O)N[C@@H](Cc1c[nH]cn1)C(=O)N[C@@H](Cc1ccc(O)cc1)C(=O)N[C@@H](Cc1ccc(O)cc1)C(=O)N[C@@H](CC(N)=O)C(=O)N[C@@H](Cc1c[nH]c2ccccc12)C(=O)N[C@@H](CC(C)C)C(=O)N[C@H](C(=O)N[C@@H](CCCNC(=N)N)C(=O)N[C@@H](CCC(N)=O)C(=O)N[C@@H](CCCNC(=N)N)C(=O)N[C@@H](Cc1ccc(O)cc1)C(N)=O)[C@@H](C)O

The target in the assay is T1, human NPY2 receptor. Briefly: RLB: displacement of 125I-PYY(1-36) from hNPY2R membranes.
Molecule B1 displayed an inhibition constant Ki of 3.46 nM. This lies in the single-digit nanomolar range. Next, B2: 6.04 nM; B3: 1.44 nM; B4: 1.93 nM. B5: affinity was put at a Ki of 0.41 nM.

On to B6, for which the inhibition constant (Ki) was 2.33 nM.
